Source: patent US20260055200A1, “COMBINATION THERAPIES” (Alligator Bioscience AB, priority 2022, published 2026)
Where two headings read alike, the source gives them in different places.

Assays:
[1] = tested on: whole blood transcriptome; test: RNA-sequencing of peripheral whole blood of MB49 tumour-bearing hCD40tg mice; type: in vivo, mouse; details: for Differentially expressed genes, p. adj < 0.05 / Differentially expressed genes, p. adj < 0.05 & FC > 2: of 14485 total genes
From the text: Peripheral blood was collected from the mice at the end of the first cycle and subjected to RNA-sequencing to identify pharmacodynamic biomarkers. RNA was extracted from whole blood after red blood cell lysis using GLOBINclear™ Kit, mouse/rat (AM1981, Invitrogen), and Mouse RiboPure™-Blood RNA Isolation Kit (AM1951, Invitrogen) according to the manufacturer's instruction. Purified RNA was stored in RNase-free microfuge tubes (AM12425, Invitrogen), and frozen at −80 C until further use.
RNA library preparation and sequencing was performed by the Center for Translational Genomics (CTG, Lund University). RNA integrity was analyzed with the TapeStation 4200 (Agilent Technologies), using Agilent RNA ScreenTape and reagents (5067-5576, 5067-5577, Agilent Technologies). RNA concentration was analyzed with the Qubit Flex (Q33327 Invitrogen Thermo Fisher Scientific), using the QuantIT RNA HS Assay Kit (Q33140, Life Technologies). cDNA sequencing libraries were prepared using TruSeq® Stranded mRNA Library Prep kit (20020594, Illumina). The libraries were sequenced in a NovaSeq 6000 System (20012850, Illumina), using the NovaSeq 6000 SP Reagent Kit, 300 cycles v1.5 20028400). The reads were aligned to the mouse reference genome GRCm38 (mm10) using the STAR software (v 2.5.0a.13).
R (v4.0.3) and R studio (v1.4.1103) were used to perform quality control and thresholding, normalization, dimensionality reduction, and visualization as well as differential gene expression analysis. Protein coding genes with a minimum of 5 reads in 3 or more samples were kept for analysis. For data visualization, filtered raw counts were normalized using the variance-stabilizing-transformation method in the DESeq2 package (version 1.38.3).
Principal component analysis (PCA) was used to visualize the data, and assess the effects of the treatment at transcriptomic level.
To identify differentially expressed genes among treatment groups, filtered raw counts were normalized using the median of ratios method in the DESeq2 package. Treatment groups were compared using the negative binomial Wald's test (adjusted-p.value [adj-p.val]<0.05, fold change>2).
Pathway enrichment analysis was performed using EnrichR (v3.0) by querying differentially expressed genes among treatment groups onto the gene ontology database (GO, GO_bioprocess_2018). Re-occurring and highly ranked pathways (adj.p-value<0.05) were selected and harmonized throughout the samples using gene set variation transformation (GSVA). The resulting GSVA scores were plotted as a spider plot for pathway activity comparison among the groups.

CD40 = target: T1, CD40 (Homo sapiens, UniProt P25942); details: human monocyte-derived DC cultures; cited from earlier work
T1 construct: validated in vitro in human monocyte-derived DC cultures; endogenous in cells; host or cells: human monocyte-derived dendritic cells
T1 sequence (P25942 21-277): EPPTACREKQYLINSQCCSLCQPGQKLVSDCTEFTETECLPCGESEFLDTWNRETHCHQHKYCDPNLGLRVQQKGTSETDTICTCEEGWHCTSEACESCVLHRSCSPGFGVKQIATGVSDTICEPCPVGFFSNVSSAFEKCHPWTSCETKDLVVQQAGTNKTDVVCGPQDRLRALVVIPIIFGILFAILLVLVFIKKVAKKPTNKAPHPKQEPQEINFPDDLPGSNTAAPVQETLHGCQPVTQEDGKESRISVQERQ

[2] = tested on: advanced stage solid malignancies; details: cited from earlier work
[3] = tested on: advanced stage solid tumours; details: cited from earlier work

B1: Mitazalimab: agonistic, human monoclonal (IgG1) antibody targeting CD40 (antibody, chains of the INN, looked up, V domains shown)
VH: EVQLLESGGGLVQPGGSLRLSCAASGFTFSTYGMHWVRQAPGKGLEWLSYISGGSSYIFYADSVRGRFTISRDNSENALYLQMNSLRAEDTAVYYCARILRGGSGMDLWGQGTLVTVSS
VL: QSVLTQPPSASGTPGQRVTISCTGSSSNIGAGYNVYWYQQLPGTAPKLLIYGNINRPSGVPDRFSGSKSGTSASLAISGLRSEDEADYYCAAWDKSISGLVFGGGTKLTVL
expression of genes involved in response to type-1 IFN and TLR signaling ([1]; alone or in combination with FOLFIRINOX): high expression
Differentially expressed genes, p. adj < 0.05 ([1]; vs Folfirinox): 3953
Differentially expressed genes, p. adj < 0.05 & FC > 2 ([1]; vs Folfirinox): 1717
Differentially expressed genes, p. adj < 0.05 ([1]; vs Mita-Folfirinox): 453
Differentially expressed genes, p. adj < 0.05 & FC > 2 ([1]; vs Mita-Folfirinox): 221
Differentially expressed genes, p. adj < 0.05 ([1]; vs untreated): 2114
Differentially expressed genes, p. adj < 0.05 & FC > 2 ([1]; vs untreated): 849
activation markers (CD80, CD86) on DCs and release of IL-12 (CD40): up-regulation of activation markers on the surface of DCs
best response ([2]; 400 μg/kg intratumoural): stable disease (SD) in one patient with renal cell carcinoma
patients with increases in liver enzymes or bilirubin ([2]; IV administration): 3 of 5
dose-limiting toxicities (DLTs) observed ([2]; both intratumoural: grade 3 abdominal pain, grade 3 cholecystitis): Two
maximum tolerated dose (MTD) ([2]; in vivo): No maximum tolerated dose (MTD) was identified
patients with increases in liver enzymes or bilirubin ([2]; intratumoural administration): 9 of 18
doses shown safe and well tolerated ([3]; Phase I study NCT02829099): up to 1200 μg/kg
grade of most drug related adverse events ([3]; Phase I study NCT02829099): grade 1 or 2
patients who experienced a DLT ([3]; headache 5 days, grade 3 liver enzyme with grade 2 bilirubin elevation): Two
MTD ([3]; human, in vivo, iv): No MTD was identified
duration of SD in one of seven pancreatic cancer patients ([3]; in vivo): more than 6 months
response observed ([3]; patient with renal cell cancer, 1200 μg/kg): partial response (PR)
time on study of the patient with PR ([3]; renal cell cancer, 1200 μg/kg, fourteen cycles): 9.2 months
